This test concerns the target TbPTP1. Put plainly: SPR. The following applies: 2 mM citrate, 25°C, 10 mM HEPES, pH 7.4, 150 mM NaCl, 0.05% P20, 2 mM DTT, 20 mM MgCl2; for kon: parent: 0.0012; for koff: parent: 0.05; for Kd: parent: 42.

Regarding TbPIP39 wild type D57A, the kon worked out at 1300 M⁻¹ s⁻¹, the koff is 0.04 s⁻¹ and the Kd amounted to 31 µM.
On to TbPIP39 wild type DD mutant, for which the kon is 1200 M⁻¹ s⁻¹, the koff was found to be 0.05 s⁻¹ and the Kd was 42 µM.
Consider TbPIP39 wild type T63A; V64A, for which the kon stood at 1100 M⁻¹ s⁻¹, the koff turned out to be 0.03 s⁻¹ and the Kd came out at 30 µM.

The term kon denotes a measure of how fast the partners come together. A word on the koff: it is the first-order rate constant of dissociation. One may read the Kd as the free concentration of one partner at which half of the binding sites on the other are occupied at equilibrium, for simple one-to-one binding.

Source of the values: article PMC3798605, “Independent Pathways Can Transduce the Life-Cycle Differentiation Signal in Trypanosoma brucei” (PLoS Pathogens, 2013).
